Data reported in publication PMC4759192.

Legend:
[1] = target: complex IV (cytochrome c oxidase) (bovine (endogenous in bovine heart)); assay: native gel or EMSA; BN-PAGE of bovine heart mitochondria solubilized with digitonin
[2] = target: complex I (NADH dehydrogenase) (bovine (endogenous in bovine heart)); assay: absorption spectroscopy of the co-purified supercomplex; concentrations of b-type and c-type cytochromes (redox difference spectra) and of complex IV (reduced form) in eight supercomplex samples, room temperature, HEPES-Na pH 7.8 with sucrose
[3] = target: complex III (cytochrome c reductase/cytochrome bc1 complex) (bovine (endogenous in bovine heart)) (UniProt P00157); assay: co-sedimentation + native gel or EMSA; crystalline complex III exchanged into amphipol, stepwise sucrose gradient 0.8-1.2 M in HEPES-Na pH 7.8, 105,000 x g, 15 h, 4 C; fractions by BN-PAGE
[4] = target: complex IV (cytochrome c oxidase) (bovine (endogenous in bovine heart)); assay: absorption spectroscopy of the co-purified supercomplex; concentrations of b-type and c-type cytochromes (redox difference spectra) and of complex IV (reduced form) in eight supercomplex samples, room temperature, HEPES-Na pH 7.8 with sucrose

| Substance | stoichiometry N [1] | stoichiometry N (complex IV per complex I) [2] | stoichiometry N [3] | stoichiometry N (complex III per complex I) [2] | ratio b-type cytochrome/complex IV1 (average) (b-type cytochrome per complex IV monomer) [4] | ratio c-type cytochrome/complex IV1 (average) (c-type cytochrome per complex IV monomer) [4] | stoichiometry N (complex III per complex IV) [4] |
| --- | --- | --- | --- | --- | --- | --- | --- |
| complex IV (cytochrome c oxidase) | 2 | 1 |  |  |  |  |  |
| complex III (cytochrome c reductase/cytochrome bc1 complex) (from UniProt P00157 1-379; P00125 85-325) |  |  | 2 | 2 | 3.88 | 2.2 | 2 |
